From article PMC7673117

Tests used:
[1] = biological target: HLA-E loaded with Peptide 19 on 721.174 cells (human (endogenous in 721.174 cells) | Epstein-Barr virus (B95.8 laboratory strain)) (UniProt P13747)
[2] = biological target: HLA-E loaded with Peptide 9 on 721.174 cells (human (endogenous in 721.174 cells) | Epstein-Barr virus (B95.8 laboratory strain)) (UniProt P13747)
[3] = biological target: HLA-E loaded with Peptide 12 (…) on 721.174 cells (human (endogenous in 721.174 cells) | Epstein-Barr virus (B95.8 laboratory strain)) (UniProt P13747)

Measured: cytotoxicity of sorted NKG2A+NKG2C- NK cells against peptide-pulsed 721.174 cells, E:T 3:1, 5 h

NKG2A/CD94 receptor on primary human NK cells (from UniProt P26715;Q13241)
> 80%: all assays above
